In the supplement of paper PMC9170038:

System: MS2 coat protein
Test: apparent KD of MS2 coat protein; designed switch direction (-1 OFF switch, 1 ON switch): -1; higher = weaker reporter binding
Method in brief: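 An oligonucleotide input, 200 uM small-molecule ligand, or no input was present during titration of SNAP-549-labelled MS2 coat protein, which was doubled from 0.7 or 1.5 nM to 3 µM. Designed RNA switches had been transcribed on Illumina chips by stalled E. coli RNA polymerase. Apparent KD per design is the median over clusters of curves fitted to normalised cluster fluorescence.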

[1] = Eterna round: R95, input ligand: FMN 200 uM
[2] = Eterna round: R95, input ligand: microRNA oligo, concentration not stated
[3] = Eterna round: R95, input ligand: none
[4] = input ligand: microRNA oligo, concentration not stated

Sequence | apparent KD of MS2 coat protein (input ligand: FMN 200 uM) | apparent KD of MS2 coat protein (input ligand: none) | apparent KD of MS2 coat protein [1] | apparent KD of MS2 coat protein [2] | apparent KD of MS2 coat protein [3] | apparent KD of MS2 coat protein [4]
UAGCAACGAGGAUAUGCGGGCCUGAACCUAAAGUCGACCUUACAUGAGGAUCACCCAUGUAGAAGGCGUAGUGU [Eternabot (L2) Solution 71] (Eterna round: R97, puzzle: Exclusion 2) | 0.0168 µM | 0.0183 µM | – | – | – | –
GCAGGCGUCUUGGCUCGUCUUAUUUGGAGAGGAUUGAUAACAUGAGGAUCACCCAUGUGUGUGGGAGAGUUGCAGUG [JR_SV3TOV2_Sub017] (puzzle: Sensor v3, turn-off variant 2) | – | – | 0.293 µM | 0.203 µM | 0.374 µM | –
AAAAAACAAGGAUAUACGAAGGAUGAUUAUCUUAAUUUUUGACAUGAGGAUCACCCAUGUAGAAGGUGUUAAAA [JR_Exclusion2_Sub008] (puzzle: Exclusion 2) | – | – | 0.125 µM | 0.0515 µM | 0.0529 µM | –
CCUAGUUGGUAAGGAUAUCCUACACUGUUCUGACCCGGGCAAGCUACAUGAGGAUCACCCAUGUGGGAGAAGGUGCGUCAACGC [Design 13] (Eterna round: R96, puzzle: Exclusion NG 2) | 0.0308 µM | 0.0312 µM | – | – | – | 0.0222 µM
UUCUCGACAUGAGGAUCACCCAUGUAGUGGGAGAAAACUGGUUAGGAUAUAAAAUAGUACACCGUUUAGAAGGGACCUAUCCUC [Eternabot solution 4] (Eterna round: R96, puzzle: Exclusion NG 3) | 0.0792 µM | 0.0723 µM | – | – | – | 0.0457 µM
GACAGGCAGGCAGGAUAUGCCCGUGUGGAUGGUGUAGAAGGGCUAGCGGGUCACUUGAGGAUCACCCAAGUGGAGGGUGGCCUA [Mutated MS2 EX1.28] (Eterna round: R96, puzzle: Exclusion NG 1) | 0.0513 µM | 0.0382 µM | – | – | – | 0.0312 µM
CAAAGACCGGCAGGAUAUUGACCCAGAACAUGAGGAUCACCCAUGUCAACAAGGUUGGACCAGGGCGAGAAGGGCCACGCCAAA [Eternabot solution 22] (Eterna round: R96, puzzle: Exclusion NG 2) | 0.0123 µM | 0.0221 µM | – | – | – | 0.0125 µM
GCUGCGCGAGGAUAUGCGGUUCGGGCGGUGGCCGCUGGCGGACAUGAGGAUCACCCAUGUAGAAGGCGUGCGGG [Apr-15 SS2-61] (puzzle: Exclusion 2) | – | – | – | 0.0149 µM | – | –
ACUUAUUGAGGAUAUACAGAUUAUUACAUGAGGAUCACCCAUGUUCUUCAAUGUAUAUAUGUAGAAGGCAGAGGAU [Mat - Exclusion 5 - JL Mod - D13] (Eterna round: R97, puzzle: Exclusion 5) | 0.221 µM | 0.0737 µM | – | – | – | –
CCGUUCCGUGUAGGAUAUUGGCCUACCACGGGCCGAGAAGGACAUGAGGAUCACCCAUGUAUGCUAUUAUCGCGCGUGGCGCCC [Design 99] (Eterna round: R96, puzzle: Exclusion NG 1) | 0.024 µM | 0.0218 µM | – | – | – | 0.0154 µM
UAAUUCGUAGGAUAUACAAAGGGAGAAUGAUUGCGGUCCUGACAUGAGGAUCACCCAUGUAGAAGGAUGAGGGU [Eternabot (L1) Solution 41] (Eterna round: R97, puzzle: Exclusion 2) | 0.0919 µM | 0.0886 µM | – | – | – | –
UUUGUUUUGCAAGGAUAUGUUUAAUUUUAGUUUCCUUACACAUGAGGAUCACCCAUGUUAUACUUACAGAAGGUGCGUAAUUUU [Excl-NG2-LRO02] (Eterna round: R96, puzzle: Exclusion NG 2) | – | – | – | – | – | 0.104 µM
AAAAUACAUGAGGAUCACCCAUGUAAGGAUAUACGCCUAGUACCGAUGGUACUACAAAGUAGAAGGUACAUGGC [Arma] (puzzle: Exclusion 1) | – | – | 0.0171 µM | 0.0123 µM | 0.0141 µM | –
UCAUGGUAGCAGGAUAUGCUUGUAAUUUUUUUUGCAGAAGGGCUUACAUGAGGAUCACCCAUGUGUUAGGUCUA [JR_E6_Sub068] (puzzle: Exclusion 6) | – | – | – | 0.0307 µM | – | –
UGGUGGAAGCAGGAUAUGCUUGUAUUAUUGAUAGCAGAAGGGCUAACAUGAGGAUCACCCAUGUAAGAGGUGUA [JR_E6_Sub057] (puzzle: Exclusion 6) | – | – | 0.19 µM | 0.203 µM | 0.238 µM | –
UCUAUUUUGCGAGGAUAUCGACCAUUCCUCUUUACAUGAGGAUCACCCAUGUUCUUUUUCUACAACGAGAAGGCGCUCAUAGUU [JR_ExcNG2_Sub062] (Eterna round: R96, puzzle: Exclusion NG 2) | 0.0735 µM | 0.0616 µM | – | – | – | 0.0677 µM
UCACGGGACUGAGGAUAUACAUGAACCAUGGUUGUAGAAGGCAGAAGGUUGGAUCAUACACUAAACAUGAGGAUCACCCAUGUU [JR_ExcNG1_Sub028] (Eterna round: R96, puzzle: Exclusion NG 1) | 0.0164 µM | 0.0218 µM | – | – | – | 0.0157 µM
AAAAAGCGAGGAUAUGCAUAAGGACCCGGGAGGGAAAUCAAACAUGAGGAUCACCCAUGUAGAAGGCGCAAAAA [Exclss2-III] (puzzle: Exclusion 2) | – | – | – | 0.0182 µM | – | –
UCUCGCUGGCGAGGAUAUCCUGUGCGGUUCCGGCUCGUGUCUGUUACAUGAGGAUCACCCAUGUGGGAGAAGGUGCCUGUGGCU [Design 94] (Eterna round: R96, puzzle: Exclusion NG 2) | – | – | – | – | – | 0.022 µM
CCGGAAAUGAAGGAUAUAGGUGUCGAUAGACACCUAGAAGGUCAUACAUGAGGAUCACCCAUGUGUCCUACCGG [Fiskers Ex 6 - 7] (puzzle: Exclusion 6) | – | – | – | 0.0139 µM | – | –
CUAGAUCUUCGGAUCUAGUACAUGAGGAUCACCCAUGUGACGAGUUACAUGUUUUACAAGCUUUUUGCUCGUCUUAU [Sensor v3 - Turn-off variant 1 - 13] (puzzle: Sensor v3, turn-off variant 1) | – | – | 0.0394 µM | 0.0907 µM | 0.0405 µM | –
UUUUUCAGGCCAGAUCCUCACAUGAGGAUCACCCAUGUGCUCGUCUGUUUUCGCUCUAGCUUUUUUUUGGUAGUGCU [Level Boss var2-16] (puzzle: Sensor v3, turn-off variant 1) | – | – | 0.164 µM | 0.0318 µM | 0.243 µM | –
UUAGGCGUCUUUGCUCGUCUUAUUUGGAGAUGACUGUUAACAUGAGGAUCACCCAUGUGUGUGGGAGCUUUGCAGUU [JR_SV3TOV2_Sub022] (puzzle: Sensor v3, turn-off variant 2) | – | – | 0.215 µM | 0.377 µM | 0.271 µM | –
GCAAGCUUAAUCUGUAUGAACAUGAGGAUCACCCAUGUAUAAGGUAAUUCUUUUGGGUUUUUUAUUGCUCGUCUUAU [JR_STOV1_Sub025] (Eterna round: R97, puzzle: Sensor, turn-off variant 1) | 0.189 µM | 0.21 µM | – | – | – | –
UCACACGGAGGAUAUACCGUCGGUCAUUGGUGUGACGUAUCACAUGAGGAUCACCCAUGUAGAAGGCCGUGCUU [Eternabot (L2) Solution 14] (Eterna round: R97, puzzle: Exclusion 2) | 0.394 µM | 0.208 µM | – | – | – | –
GAAGCACAUGAGGAUCACCCAUGUAAGGAUAUAUUUCUGGUCCGGCCGGACCAGUACCGUAGAAGGUAUGUAAA [Excls-IIIa] (puzzle: Exclusion 1) | – | – | – | 0.0118 µM | – | –
UUAUAGAGAGGAUAUAUAAUGUGAAACAUGAGGAUCACCCAUGUAAUAUUAUGGAUGUAAAUAGAAGGCUCAAUUU [Mat - Exclusion 5 - JL mod - D14] (puzzle: Exclusion 5) | – | – | 0.0293 µM | 0.0306 µM | 0.0324 µM | –
AUGGUUAGGUCAGGAUAUCGUUGAUUGAAUAGUAUGAUUUACAUGAGGAUCACCCAUGUUAUAUACGAGAAGGGACUUUAUCAU [JR_ExcNG2_Sub023] (Eterna round: R96, puzzle: Exclusion NG 2) | 0.00977 µM | 0.0186 µM | – | – | – | 0.00877 µM
GAAAAGUGAGGAUAUGGUAAAAGAAAAAGAAGAAGAAAACUCCAGAAGGCACAUGAGGAUCACCCAUGUGAAAG [salish99_ex4_r3_007] (puzzle: Exclusion 4) | – | – | 0.0222 µM | 0.0174 µM | 0.0157 µM | –
UUAAUACAUGUAGGAUAUGCGUGGCGAAGCUAUGCAGAAGGACAUGAGGAUCACCCAUGUUCCAGCGUCCGCGUACGGAUGCAA [JL Eng1 1.21 mod 12] (Eterna round: R96, puzzle: Exclusion NG 1) | 0.0142 µM | 0.0142 µM | – | – | – | 0.0124 µM
